This is an account of results in article PMC12342132, “Mechanistic insights into the GEF activity of the human MON1A/CCZ1/C18orf8 complex” (Protein & Cell, 2025).

Sequences and labels used below:
T1: C18orf8 (1–657) (human, UniProt Q96DM3 1-657)
T1 construct: Subunit of m3, written alone for the pairwise contacts in the structure
T1 sequence (looked up): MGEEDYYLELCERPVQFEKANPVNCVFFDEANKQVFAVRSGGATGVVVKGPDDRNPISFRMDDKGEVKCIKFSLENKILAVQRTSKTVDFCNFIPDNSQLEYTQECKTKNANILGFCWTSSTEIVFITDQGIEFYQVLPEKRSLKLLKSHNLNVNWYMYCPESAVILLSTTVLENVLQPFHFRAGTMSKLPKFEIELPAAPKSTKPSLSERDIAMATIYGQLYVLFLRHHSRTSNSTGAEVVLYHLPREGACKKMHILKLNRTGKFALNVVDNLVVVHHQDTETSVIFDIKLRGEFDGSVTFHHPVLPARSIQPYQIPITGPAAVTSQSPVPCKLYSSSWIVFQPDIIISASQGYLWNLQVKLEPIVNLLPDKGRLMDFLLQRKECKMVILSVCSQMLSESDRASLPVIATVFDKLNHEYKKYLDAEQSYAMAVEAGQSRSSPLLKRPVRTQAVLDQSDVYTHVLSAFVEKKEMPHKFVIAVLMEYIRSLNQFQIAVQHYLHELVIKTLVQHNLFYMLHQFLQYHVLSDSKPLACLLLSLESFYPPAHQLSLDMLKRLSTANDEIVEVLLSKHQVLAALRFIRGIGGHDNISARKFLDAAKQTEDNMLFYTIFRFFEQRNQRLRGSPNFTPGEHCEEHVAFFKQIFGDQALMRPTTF

B1: CCZ1 (1–482) (natural protein, human, UniProt P86791 1-482, looked up)
chain: MAAAAAGAGSGPWAAQEKQFPPALLSFFIYNPRFGPREGQEENKILFYHPNEVEKNEKIRNVGLCEAIVQFTRTFSPSKPAKSLHTQKNRQFFNEPEENFWMVMVVRNPIIEKQSKDGKPVIEYQEEELLDKVYSSVLRQCYSMYKLFNGTFLKAMEDGGVKLLKERLEKFFHRYLQTLHLQSCDLLDIFGGISFFPLDKMTYLKIQSFINRMEESLNIVKYTAFLYNDQLIWSGLEQDDMRILYKYLTTSLFPRHIEPELAGRDSPIRAEMPGNLQHYGRFLTGPLNLNDPDAKCRFPKIFVNTDDTYEELHLIVYKAMSAAVCFMIDASVHPTLDFCRRLDSIVGPQLTVLASDICEQFNINKRMSGSEKEPQFKFIYFNHMNLAEKSTVHMRKTPSVSLTSVHPDLMKILGDINSDFTRVDEDEEIIVKAMSDYWVVGKKSDRRELYVILNQKNANLIEVNEEVKKLCATQFNNIFFLD
notes: human CCZ1, residues 1-482; Subunit of m3, written alone for the pairwise contacts in the structure
B2: MON1A (235–652) (domain or fragment, human, UniProt Q86VX9 235-652, looked up)
chain: GTTEGDEEDATEAWRLHQKHVFVLSEAGKPVYSRYGSEEALSSTMGVMVALVSFLEADKNAIRSIHADGYKVVFVRRSPLVLVAVARTRQSAQELAQELLYIYYQILSLLTGAQLSHIFQQKQNYDLRRLLSGSERITDNLLQLMARDPSFLMGAARCLPLAAAVRDTVSASLQQARARSLVFSILLARNQLVALVRRKDQFLHPIDLHLLFNLISSSSSFREGEAWTPVCLPKFNAAGFFHAHISYLEPDTDLCLLLVSTDREDFFAVSDCRRRFQERLRKRGAHLALREALRTPYYSVAQVGIPDLRHFLYKSKSSGLFTSPEIEAPYTSEEEQERLLGLYQYLHSRAHNASRPLKTIYYTGPNENLLAWVTGAFELYMCYSPLGTKASAVSAIHKLMRWIRKEEDRLFILTPLTY
notes: Subunit of m3, written alone for the pairwise contacts in the structure

Experiment [1] has as its target T1, C18orf8 (1–657). In words: cryo-EM structure; MON1A (235–652)/CCZ1 (1–482)/C18orf8 (1–657)/Rab7A (1–181) T22N complex, 3.41 Å. The note with it: both partners purified.
Experiment [2] concerns the target B1. The experiment is described as above. The following applies: both partners purified.

For the molecule B1, the binding result in experiment [1] is “binds”.

Consider B2, for which the binding result in experiment [1] and in experiment [2] was “binds” in each case.
